Target: T1, GST-RanBP2-M1_(900–1826) (human, UniProt P49792 900-1826)
T1 sequence (looked up): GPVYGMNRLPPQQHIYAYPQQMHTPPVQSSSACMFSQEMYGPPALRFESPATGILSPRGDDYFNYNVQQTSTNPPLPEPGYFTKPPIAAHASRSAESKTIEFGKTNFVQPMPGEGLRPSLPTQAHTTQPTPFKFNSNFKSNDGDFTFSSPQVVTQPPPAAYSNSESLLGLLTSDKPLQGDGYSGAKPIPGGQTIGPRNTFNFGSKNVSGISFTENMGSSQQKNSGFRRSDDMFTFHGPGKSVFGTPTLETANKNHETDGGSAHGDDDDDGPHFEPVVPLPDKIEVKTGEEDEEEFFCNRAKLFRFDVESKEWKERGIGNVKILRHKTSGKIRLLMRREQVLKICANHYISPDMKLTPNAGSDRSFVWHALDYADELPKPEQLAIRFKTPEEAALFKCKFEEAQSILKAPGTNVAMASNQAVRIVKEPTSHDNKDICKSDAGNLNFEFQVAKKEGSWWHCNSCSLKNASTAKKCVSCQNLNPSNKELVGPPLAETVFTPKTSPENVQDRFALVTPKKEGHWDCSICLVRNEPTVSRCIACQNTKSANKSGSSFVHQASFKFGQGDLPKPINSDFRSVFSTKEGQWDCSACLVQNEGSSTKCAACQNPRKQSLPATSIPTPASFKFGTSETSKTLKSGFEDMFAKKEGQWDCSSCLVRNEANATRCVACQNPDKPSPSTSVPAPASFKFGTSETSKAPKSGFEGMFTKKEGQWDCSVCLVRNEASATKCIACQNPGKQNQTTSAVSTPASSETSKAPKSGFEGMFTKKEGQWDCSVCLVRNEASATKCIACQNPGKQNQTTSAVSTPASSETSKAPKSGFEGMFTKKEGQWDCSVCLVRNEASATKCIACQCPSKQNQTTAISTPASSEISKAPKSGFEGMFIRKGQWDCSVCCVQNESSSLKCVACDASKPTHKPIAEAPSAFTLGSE
Assay: pull-down

binding result: binds
B1: His-Imp-β1-N2_(1–650) (domain or fragment, human, UniProt Q14974 1-650, looked up)
chain: MELITILEKTVSPDRLELEAAQKFLERAAVENLPTFLVELSRVLANPGNSQVARVAAGLQIKNSLTSKDPDIKAQYQQRWLAIDANARREVKNYVLQTLGTETYRPSSASQCVAGIACAEIPVNQWPELIPQLVANVTNPNSTEHMKESTLEAIGYICQDIDPEQLQDKSNEILTAIIQGMRKEEPSNNVKLAATNALLNSLEFTKANFDKESERHFIMQVVCEATQCPDTRVRVAALQNLVKIMSLYYQYMETYMGPALFAITIEAMKSDIDEVALQGIEFWSNVCDEEMDLAIEASEAAEQGRPPEHTSKFYAKGALQYLVPILTQTLTKQDENDDDDDWNPCKAAGVCLMLLATCCEDDIVPHVLPFIKEHIKNPDWRYRDAAVMAFGCILEGPEPSQLKPLVIQAMPTLIELMKDPSVVVRDTAAWTVGRICELLPEAAINDVYLAPLLQCLIEGLSAEPRVASNVCWAFSSLAEAAYEAADVADDQEEPATYCLSSSFELIVQKLLETTDRPDGHQNNLRSSAYESLMEIVKNSAKDCYPAVQKTTLVIMERLQQVLQMESHIQSTSDRIQFNDLQSLLCATLQNVLRKVQHQDALQISDVVMASLLRMFQSTAGSGGVQEDALMAVSTLVEVLGGEFLKYMEAF

Reference: article PMC3824679 (Cell Death & Disease, 2013)
